Here are results for five molecules from patent US20220289837A1, “Cystic Fibrosis Transmembrane Conductance Regulator Stabilizing Agents” (VIB VZW, priority 2019, published 2022).

Holding throughout (assay type): cell-based
The target in assay [1] is T1, 3HA-F508del-CFTR (Homo sapiens, UniProt P13569, DEL508-508).
T1 construct: expressed in transfected cells
The assay can be described thus: Cell-surface expression of F508del-CFTR in HEK-293T cells by flow cytometry. As to conditions: extracellular 3HA-tag, Nb transfected and/or VX-809. As to the method: (§1) HEK293T cells expressing F508del-CFTR with an engineered extracellular 3HA tag were transiently transfected with the stabilizing Nbs, as well as control Nbs. The effect on F508del mutant CFTR expression and maturation was measured by flow cytometry, Western Blot and fluorescence microscopy. Next, the effect of the transfection of each Nb was measured in the absence or presence of the correctors VX-809 (lumacaftor) or VX-661 (Tezacaftor).
(§2) Stable cell lines were generated by lentiviral transduction as described in (Ensinck, et al. 2020). CFTR variants were cloned to contain a triple hemagglutinin (3HA) tag in the fourth extracellular loop (EC-loop) of CFTR (Sharma, et al. 2004) for maturation and trafficking studies. For HS-YFP quenching studies, double stable cell lines were generated, co-expressing stable HS-YFP (Galietta, et al. 2001).
A general note: In flow cytometry, cells or beads pass a laser one at a time.

Assay [2] has as its target T1, 3HA-F508del-CFTR. Nature of the assay: CFTR protein maturation by Western Blot in 3HA-F508del-CFTR HEK-293T cells. Conditions: for band C (fully glycosylated mature CFTR): FIG. 15, Nb transfected and/or VX-809; for mature CFTR protein band (band C): FIG. 17, Nb transfected and/or VX-661. How it is done: as §1, §2
Cell extracts were separated by SDS-PAGE on 7.5% polyacrylamide gel and transferred to nitrocellulose membrane (Bio-Rad) for immunodetection. After blocking for 1 h with 5% bovine serum albumin (BSA) in Tris-buffered saline added 0.05% Tween-20 (TBST), CFTR was detected using monoclonal antibody mAb 596, IgG2b (CFTR Antibody Distribution Program, dilution 1:46) for 1 h in blocking buffer. Blot was washed 3 times 5 min and incubated with anti-mouse-HRP antibody (Millipore, catalogue number: AP308P, 0.2 μg/ml) for 1 h in TBST. Membrane was washed 3 times for 5 min. CFTR was visualized by chemiluminescence using Luminata Forte Western HRP Substrate (Millipore) and detected with ImageQuant 400 (GE Healthcare).

Assay [3] has as its target T1, 3HA-F508del-CFTR. Nature of the assay: Immunostaining of cell-surface expression in F508del-CFTR HEK-293T cells. As to the method: as §2
For PM staining, cells were blocked with 1% BSA-PBS and incubated with HA.11 antibody (#901515, Biolegend 1:1000) at 4° C. on living cells. Next, cells were fixed (4% PFA) followed by Alexa-488 secondary antibody (#A-11001, Thermo Fischer Scientific, 1:500). Nuclei were stained with DAPI (4′,6-diamidino-2-fenylindole, #D1306, Thermo Fischer Scientific, 1:2000) and sections analyzed by confocal microscopy.

T1 sequence (P13569 with tags, fused parts or gaps DEL508-508): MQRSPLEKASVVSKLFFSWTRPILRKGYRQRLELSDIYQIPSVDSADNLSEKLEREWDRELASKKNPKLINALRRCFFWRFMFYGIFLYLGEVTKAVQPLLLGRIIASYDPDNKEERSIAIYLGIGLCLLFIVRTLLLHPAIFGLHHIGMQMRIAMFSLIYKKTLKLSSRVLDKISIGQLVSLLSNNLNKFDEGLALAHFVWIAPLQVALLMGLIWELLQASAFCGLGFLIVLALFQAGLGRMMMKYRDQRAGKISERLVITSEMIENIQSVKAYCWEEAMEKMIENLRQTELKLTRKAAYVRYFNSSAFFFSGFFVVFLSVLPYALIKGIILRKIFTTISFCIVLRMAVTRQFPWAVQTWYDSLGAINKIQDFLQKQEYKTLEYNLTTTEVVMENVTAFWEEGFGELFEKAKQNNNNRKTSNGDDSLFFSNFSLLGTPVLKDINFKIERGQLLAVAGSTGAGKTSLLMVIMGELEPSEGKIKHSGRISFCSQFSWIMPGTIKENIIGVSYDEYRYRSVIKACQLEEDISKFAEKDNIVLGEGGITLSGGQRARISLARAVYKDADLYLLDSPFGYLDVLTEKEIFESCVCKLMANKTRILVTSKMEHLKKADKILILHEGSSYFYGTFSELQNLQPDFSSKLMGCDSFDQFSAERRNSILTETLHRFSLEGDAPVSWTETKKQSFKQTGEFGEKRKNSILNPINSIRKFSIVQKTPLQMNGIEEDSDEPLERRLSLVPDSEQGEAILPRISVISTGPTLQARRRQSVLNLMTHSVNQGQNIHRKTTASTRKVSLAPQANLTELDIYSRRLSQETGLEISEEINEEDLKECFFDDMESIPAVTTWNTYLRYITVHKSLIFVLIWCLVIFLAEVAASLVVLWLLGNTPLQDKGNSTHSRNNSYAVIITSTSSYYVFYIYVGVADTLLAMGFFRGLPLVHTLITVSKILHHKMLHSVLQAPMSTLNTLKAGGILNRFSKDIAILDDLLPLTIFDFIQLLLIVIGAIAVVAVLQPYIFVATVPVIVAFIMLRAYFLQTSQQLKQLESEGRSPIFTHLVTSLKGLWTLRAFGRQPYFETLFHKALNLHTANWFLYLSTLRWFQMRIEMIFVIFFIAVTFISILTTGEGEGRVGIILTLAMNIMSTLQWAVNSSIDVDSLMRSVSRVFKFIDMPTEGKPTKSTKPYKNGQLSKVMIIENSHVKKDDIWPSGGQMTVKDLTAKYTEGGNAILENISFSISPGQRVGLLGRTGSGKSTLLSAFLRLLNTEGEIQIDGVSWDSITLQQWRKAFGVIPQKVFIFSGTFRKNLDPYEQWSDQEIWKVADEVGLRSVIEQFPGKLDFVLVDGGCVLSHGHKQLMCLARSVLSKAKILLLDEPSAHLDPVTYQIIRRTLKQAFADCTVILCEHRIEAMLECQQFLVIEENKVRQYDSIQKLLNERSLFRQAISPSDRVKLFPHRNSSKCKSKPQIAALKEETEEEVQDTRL

B1: T8: nanobody, SEQ ID NO:7, binds epitope 2 including F508, stabilizes WT CFTR but not F508del (protein)
VHH: QVQLQESGGGLVQPGGSLRLSCAASGSTSSINAMGWYRQAPGKQREPVAISSSGGDTRYAEPVKGRFTISRDNAQNKVYLQMNSLKPEDTAVYYCWLNWGRTSVNSWGQGTQVTVSS
modifications: T8 Nanobody amino acid sequence
With B1, the “cell-surface expression of F508del-CFTR” value with 3HA-F508del-CFTR [1] was “No effect”. For the same molecule, in the assay with 3HA-F508del-CFTR [2], the “band C (fully glycosylated mature CFTR)” value is recorded as “no effect”.

B2: G3a: non-stabilizing nanobody, SEQ ID NO:50, recognizes the structurally diverse region of NBD1 (protein)
VHH: QVQLQESGGGLVQAGGSLRLSCTASGRAFSWYVMGWFRQAPGKEREFVATVSGNGSRRDYADSVKGRFTISRDNAKNTVYLQMNSLKPEDTAVYYCAASSTYYYTDPEKYDYWGQGTQVTVSS
modifications: G3a Nanobody
Turning to B2, the “cell-surface expression of F508del-CFTR” value in the assay with 3HA-F508del-CFTR [1] is given as “No effect”. Further, in the assay with 3HA-F508del-CFTR [2], the “band C (fully glycosylated mature CFTR)” value is given as “no effect” and the “mature CFTR protein band (band C)” value was “detectable”.

B3: T2a: NBD1-specific CFTR-stabilizing nanobody, SEQ ID NO:3, binds epitope 1 (protein)
VHH: QVQLQESGGGLVQAGGSLRLSCAASGSIFRIDAMGWYRQAPGKQRELVAHSTSGGSTDYADSVKGRFTISRDNAKNTVYLQMNSLKPEDTAVYYCNADVRTRWYASNNYWGQGTQVTVSS
modifications: T2a Nanobody amino acid sequence
As for B3, the “cell-surface expression of F508del-CFTR” value with 3HA-F508del-CFTR [1] is listed as “moderate increase in surface expression”. In addition, in the assay with 3HA-F508del-CFTR [3], the cell-surface immunostaining entry is reported as “moderate staining”. In the assay with 3HA-F508del-CFTR [2], the “band C (fully glycosylated mature CFTR)” value is on record as “detectable” and the “mature CFTR protein band (band C)” value is recorded as “only a minor effect”.

B4: D12: NBD1-specific CFTR-stabilizing nanobody, SEQ ID NO:2, binds epitope 1 (protein)
VHH: QVQLQESGGGLVQAGSSLRLACAATGSIRSINNMGWYRQAPGKQRGMVAIITRVGNTDYADSVKGRFTISRDNAKNTVYLQMNSLKPEDTATYYCHAEITEQSRPFYLTDDYWGQGTQVTVSS
modifications: D12 Nanobody amino acid sequence
In the case of B4, the “cell-surface expression of F508del-CFTR” value with 3HA-F508del-CFTR [1] is recorded as “moderate increase in surface expression”.

B5: G5: NBD1-binding nanobody, SEQ ID NO:5, same binding site as T2a, T27 and D12 (protein)
VHH: QVQLQESGGGLVQAGGSLRLACAATGSIRNINTMGWYRQAPGKQRDMVAFITRAGNTDYADSVKGRFTISRDNARNTVYLRMNSLKPEDTATYYCHAEIAERSRPFYLTDDYWGQGTQVTVSS
modifications: G5 Nanobody amino acid sequence
In the case of B5, the “cell-surface expression of F508del-CFTR” value with 3HA-F508del-CFTR [1] is “moderate increase in surface expression”.
